From the nanobody polyreactivity screen of Harvey et al. (2022) come the findings set out here.

A short description of the data set: yeast display, Sf9 membrane polyspecificity reagent, FACS + sequencing; frameworks hold sequencing errors. The procedure, abridged: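 Galactose induction of a Saccharomyces cerevisiae BJ5465 synthetic nanobody display library ran 36–48 hours. The cells were then stained for 1 hour at 4 °C with 10% biotinylated, detergent-solubilized Sf9 membrane reagent, pulled down on streptavidin microbeads and FACS-sorted into low and high (top ~1%) gates on expression and reagent-binding fluorescence. Labels for polyreactivity follow the gate of origin.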
Regarding “QVQLVESGGGLVQAGGSLRLSCAASGRIFYRNAMGWYRQAPGKERELVAAITGSTGNTYYADSVKGRFTISRDNAKNTVYLQMNSLKPEDTAVYYCIAGLGRWWHYPATYYYYWGQGTQVTVSS”, the “polyreactivity (PSR sort gate)” value is “low polyreactivity”. The value for “QVQLVESGGGLVQAGGSLRLSCAASGRIFYRNAMGWYRQAPGQERELVAGITRGGSTNYADSVKGRFTLSRDNAKNTVFLHMNSLKPEDTAVYYCAASWPSSLTYYYWGQGSQVTVSS” was “low polyreactivity”; that for “QVQLVESGGGLVQAGGSLRLSCAASGRIFYRNAMGWYRQSPGKERELVAAINWSGGSTYYAYSVKGRFTISRDNAKNTVYLQMNSLKPEDTAVYYCATGYRQGEYDYWGQGTQVTLSS” was “low polyreactivity”; that for “QVQLVESGGGLVQAGGSLRLSCAASGRIFYRNVMGWYRQAPGKERELVAAISYRGGSTSYADSVKGRFTISRDNAKNTVYLPMHILKPEDTAVDYCNAARIRPAYSDREYWGQGTQVTVSS” was “low polyreactivity”. As to “QVQLVESGGGLVQAGGSLRLSCAASGRIFYRNVMGWYRQAPGKERELVAAITYRTGSTYYADSVKGRFTISRDNAKNTVYLQMNSLKPEDTAVYYCATESGLTYDYWGQGTQVTVSS”, the “polyreactivity (PSR sort gate)” value is “high polyreactivity”.

On to “QVQLVESGGGLVQAGGSLRLSCAASGRIFYRYAMGWDSQAPGKERELVAAISCGGSTYYADSVKGRFTISRDNAKNTVYLQMNSLKPEDSAVYYCAATWGRGTYYLYYYWGQGTQVTVSS”, for which the “polyreactivity (PSR sort gate)” value is reported as “high polyreactivity”. The value for “QVQLVESGGGLVQAGGSLRLSCAASGRIFYRYAMGWYRQAPGKERELVAAITIGGRTNYADSVKGRFTISRDNAKNTVYLQMNSLKPEDTAVYYCAVVLYTRYPPRVRYYYWGQGTQVTVSS” was “high polyreactivity”; that for “QVQLVESGGGLVQAGGSLRLSCAASGRIFYRYVMGWYRQAPGKERELVAAITSSGGSTYYADSVKGRFTISRDNAKNTVYLQMNSLNPEDTAVYYCAADRYTRYRYNYWGQGTQVTVSS” was “high polyreactivity”; that for “QVQLVESGGGLVQAGGSLRLSCAASGRIFYSNAMGWYRQAPGKAWELVATISRRGGRTYSADSVKGRFTLSRDIAKNTVYLQMNSLKPEDTAVYYCNANDRNAGSSRGGRLYDSWGQGTQVTVSS” was “high polyreactivity”. As for “QVQLVESGGGLVQAGGSLRLSCAASGRIFYSNAMGWYRQAPGKEREFVAAISWSGGGTYYADSVKGRFTISRDNAKNTVYLQMNSLKPEETAVYYCAAVFGYSWAFEYDYWGQGTQVTVSS”, the entry is “low polyreactivity”; as for “QVQLVESGGGLVQAGGSLRLSCAASGRIFYSNAMGWYRQAPGKERELVAAIRWSGGRTYYADSVNGRFTISRDNAKNSVYLQMNSLKPEDTAGYYCNARGYSGVSGKYGYWGQGTQVTVSS”, “high polyreactivity”. As for “QVQLVESGGGLVQAGGSLRLSCAASGRIFYSNAMGWYRQAPGKERELVAAISRSGVRTYYADSVKGRFTISRDNAKNTVYLQMNSLKPEDTAVYYCAAVIYGTTPQDEYDYWGQGTQVTVSS”, the entry is “low polyreactivity”. Consider “QVQLVESGGGLVQAGGSLRLSCAASGRIFYSNAMGWYRQAPGKERELVAVIRRTGSTYYAASVKGRFTISRDNAKNTVYLQMISQIPEDTAVYYCATSIPYGRGGNRYVYWGQGTQVTVSS”, for which the “polyreactivity (PSR sort gate)” value is “high polyreactivity”. As for “QVQLVESGGGLVQAGGSLRLSCAASGRIFYSNTMGWYRQAPGKERELVAAISRSGGRTYYADSVKGRFTISRDNAKNTVSLQLNSLKPEDTAVYYCNTAYCRNPYYKGYYWGQGTQVTVSS”, the entry is “high polyreactivity”; as for “QVQLVESGGGLVQAGGSLRLSCAASGRIFYSNTMGWYRQAPGKERELVARIDTGGGSTYADSVKGRFTISRDNAKNTVYLQMNSLKPEDTAVYYCNKKGRWRSWGSTSMVSMDYWGQGTQVTVSS”, “low polyreactivity”; as for “QVQLVESGGGLVQAGGSLRLSCAASGRIFYSNVMGWYRQAPGKERELVAAISGRTGGTYYADSVKGRFTISRDNAKNTVYLQMNSLKPEATAVYYCAARVIYYYGSGPYDYWGQGTQVTVSS”, “low polyreactivity”. As for “QVQLVESGGGLVQAGGSLRLSCAASGRIFYSNVMGWYRQAPGKERELVAAITSGGSTYYADSVKGRFTISRDNAKNTVYLQMNSLKPEDTAVYYCAARVAFRPRGYIRYYYWGQGTQVTVSS”, the entry is “high polyreactivity”; as for “QVQLVESGGGLVQAGGSLRLSCAASGRIFYSYAMGWYRQAPGKERELVAAIDESDGSTYYADSVKGRFTISRDNAKNTVYLQMNSLKPEDTAVYYCAADSLLVLFDYWGQGTQVTVSS”, “low polyreactivity”.

For the sequence “QVQLVESGGGLVQAGGSLRLSCAASGRIFYSYAMGWYRQAPGKERELVAAIRRGGSTNYADSVKGRFTISRDNAKKTVYLQMNSLKPEDTAVYYCAAKGYKGYFLYNYWGQGTQVTVSS”, the “polyreactivity (PSR sort gate)” value was “high polyreactivity”. As for “QVQLVESGGGLVQAGGSLRLSCAASGRIFYSYAMGWYRQAPGKERELVAAISFSVGSTYYADSVKGRFTISRDNAKYTVYLQMNSLKPEDTAVYYCAASLGFPGYEYWGQGTQVTVSS”, the “polyreactivity (PSR sort gate)” value was “low polyreactivity”. As for “QVQLVESGGGLVQAGGSLRLSCAASGRIFYSYAMGWYRQAPGKERELVAAISSAGSTYYADSVKGRFTISRDNAKNTVYLQMNSLKPEDTAVYYCAAGVTYYRYVSYVGPVPLGFDYWGQGTQVTVSS”, the entry is “high polyreactivity”; as for “QVQLVESGGGLVQAGGSLRLSCAASGRIFYSYAMGWYRQAPGKERELVAALYSDGSTDYADSVKGRFTISRDNAKNTVYLQMNSLTPEDTAVYFCAADWGWRYVLPVGWFRYGYWGQGTQVTVSS”, “low polyreactivity”. Consider “QVQLVESGGGLVQAGGSLRLSCAASGRIFYSYAMGWYRQAPGKERELVASITSSGGSTYADSVKGRFTISRDNAKNTVYLQMNSLKPEDTAVYYFDYWGQGTQVTVSS”, for which the “polyreactivity (PSR sort gate)” value is listed as “low polyreactivity”. As for “QVQLVESGGGLVQAGGSLRLSCAASGRIFYSYAMGWYRQAPGKERELVATITRRGSSTYYADSVKGRFTISRDNAKNTVYLQMNSLKPEDTAVYYCNAVGVRRAIGYPSQTEYGYWGQGTQVTVSS”, the entry is “high polyreactivity”; as for “QVQLVESGGGLVQAGGSLRLSCAASGRIFYSYGMGWYRQAPGKERELVASITISGGGSTYYADSVKGRFTISRDNAKNTVYLQMNSLKPEDTAVYYCAATRTVWKYIYDYWGQGTQVTVSS”, “high polyreactivity”; as for “QVQLVESGGGLVQAGGSLRLSCAASGRIFYTNAMGWYRQAPGKERELVAVISWGGDTTYYADSVKGRFTISRDNATNTVYLQMNSLKPEDTAVYYCNADWGPTYEIYDSWGQGTQVTVSS”, “low polyreactivity”. The value for “QVQLVESGGGLVQAGGSLRLSCAASGRIFYTYAMGWYRQAPGKERELVAAINRSGSSTYYADSVKGRFTISRDNAKNTVYLQMNSLKPEDTAVYYCNAQSYRYYGWVLTDVDYWGQGTQVTVSS” was “low polyreactivity”. The value for “QVQLVESGGGLVQAGGSLRLSCAASGRIFYTYAMGWYRRAPGKERELVAAIRISGVRTYYADSVKGRFTISRDNAKNTVYLQMNSLKPEDTAVYYCAADSYGDRMDYWGQGTQVTVSS” was “high polyreactivity”; that for “QVQLVESGGGLVQAGGSLRLSCAASGRIFYTYAMGWYRTAPGKERELVAAISSRTGSTYYADSVKWRFTISRDNAKNTVYLQMNSLKPEDTAVYYCNAYRLRYGYDYWGQGTQVTVSS” was “high polyreactivity”; that for “QVQLVESGGGLVQAGGSLRLSCAASGRIFYTYVMGWYIQAPGKERELVASISSSGGSTNYADSVKGRFTISRDNAKNTVYLQMNSLKPEDTAVYYCNKDYIHVSYREDYWGQGTQVTVSS” was “low polyreactivity”. For the sequence “QVQLVESGGGLVQAGGSLRLSCAASGRIFYVNAMGWYRQAPGKERELVATIRYSGGSTYYADSVKGRFTISRDNAKNTVYLQMNSLKPEDTAVYYCAARVADYYPGRGYGYWGQGTQVTVSS”, the “polyreactivity (PSR sort gate)” value is given as “high polyreactivity”. As for “QVQLVESGGGLVQAGGSLRLSCAASGRIFYVYAMGWYRQAPGKERELVATIDWSGGSTYYADSVKGRFTISRDNAKITVYLQMNSLKPEDTAVYYCAAYYTSYWGYDYDYWGQGTQVTVSS”, the entry is “low polyreactivity”; as for “QVQLVESGGGLVQAGGSLRLSCAASGRIFYWNAMGWYRQAHGKERELVAAISWSGGSTYYADSVKGRFTISRDNAKNTVYLQMNSLKPEDTAVYYCAADGGRRTYYVKYDYWGQGTQVTASS”, “low polyreactivity”. As for “QVQLVESGGGLVQAGGSLRLSCAASGRIFYWNAMGWYRQAPGKEREFVAAISWSGGSTYADSVKGRFTISRDNAKNTVYLQMNSLKPEDTAVYYCATRVYRSFRAYDYWGQGTQVTVSS”, the entry is “high polyreactivity”; as for “QVQLVESGGGLVQAGGSLRLSCAASGRIFYWNPMGWYRQAHGKERELVAAISWSGGSTYYADSVKGRFTISRDNAKNTVYLQMNRLKPEDTAVYYCARKYRSPISALMTGDYWGQGTQVTVSS”, “low polyreactivity”; as for “QVQLVESGGGLVQAGGSLRLSCAASGRIFYWYGMGWYRQAPGKERELVAGITYSASRTYYADSVKGRFTISRDNVKNTVYLQMNCMKPEVTAVYYCAAGRYHRDDGYDYWGQGTQVTVSS”, “low polyreactivity”. “QVQLVESGGGLVQAGGSLRLSCAASGRIFYYAMGWYRQAPGKEREFVAAISGSGGSTNYADSVKGRFTISRDNAKNTVYLQMNSLKPEDTAVYYCNAESWSWGFIYEYEYWGQGTQVTVSW”: the “polyreactivity (PSR sort gate)” value is reported as “high polyreactivity”. The value for “QVQLVESGGGLVQAGGSLRLSCAASGRIFYYNAMGWYRQAPGKERELVAAIRSSGGTTYYADSVKGRFTISRDNAKNTVYLQMNSLKPEDTAVYYCNARYWVYYVYEYDSWGQGTQVTVSS” was “low polyreactivity”; that for “QVQLVESGGGLVQAGGSLRLSCAASGRIFYYNAMGWYRQAPGKERELVAAITFDGGRTYYADSVKGRFTISRDNAKNTVYLQMNSLKPEDTAVYYCAASWYYSDFYMYYWGQGTQVTVSS” was “high polyreactivity”. For “QVQLVESGGGLVQAGGSLRLSCAASGRIFYYNAMGWYRQAPGKERELVAAITKSSGSTYYADSVKGRFTISRDNAKNTVFLQMNSLKPEDTAVYYCAKDKYLVFGFVGGDYWGQGTQVTVSS”, the “polyreactivity (PSR sort gate)” value is on record as “low polyreactivity”. As for “QVQLVESGGGLVQAGGSLRLSCAASGRIFYYNAMGWYRQAPGKERELVAAITRTGGSTYYADSVKGRFTISRDNAKNTVYLQMNSLKPEDTAVYYCAAYGGRDIRFEYWGQGTQVTVSS”, the entry is “high polyreactivity”.
